This note sets out measurements from patent publication US11512141B2, “Fibrinogen-like protein 2 (FGL2) monoclonal antibodies and their use in cancer detection and treatment” (Board of Regents, The University of Texas System, priority 2017, dated 2022).

Experiment [1] deals with OT-I T cells. The experiment is described as follows: Activation-induced OT-I T cell proliferation. It is filed as cell-based. The conditions noted are these: OT-I T cells activated with αCD3/CD28, with or without OVA peptide. The text has this: OT-I T cells were activated with αCD3/CD28 and then divided into different dishes to check the proliferation in the absence or presence of +OVA peptide (pep), absence or presence FGL2 mAb F48, and co-absence or presence of F48. Cell numbers were counted on different days.

The test system of experiment [2] is CD39 and CD73 regulatory T cell expression. The experiment is described as follows: Blocking of CD39 and CD73 regulatory T cell expression. It is filed as cell-based. As to the method: The present studies developed and characterized two anti-FGL2 monoclonal antibodies, F48 and F59. […] The effects of the anti-FGL2 antibodies were evaluated alone and in combination with other anti-cancer therapies such as anti-PDL1 antibody and chemotherapy on several mouse tumor models, including glioblastoma, melanoma, and lung cancer.

In experiment [3] the test system is GL261 glioblastoma cells. The experiment in a line: GL261 glioblastoma subcutaneous mouse model, M2 cell population in tumors. The conditions noted are these: 100 μg antibody i.v. every 3 days, from 5-7 days after s.c. GL261 inoculation; vs IgG control. The experiment is classed as in vivo, mice. The text has this:
FIGS. 1A-1C: (FIG. 1A) FGL2 expression in normal brain and GBM tissue shown by immunohistochemistry. Increased staining is observed in the glioma tissues. (FIG. 1B) Flow cytometry analysis for the expression of F4/80 and CD206 in glioblastoma tumor cells treated with IgG control or F48 anti-FGL2 antibody. (FIG. 1C) Percentage of M2 macrophages in the glioblastoma tumors treated with IgG control or F48 anti-FGL2 antibody.
To screen for the anti-FGL2 antibody F48 function in mice, GL261 glioblastoma cells (1×10^5 in 30 μL) were injected into the back of mice by subcutaneous injection. The first treatment with antibody comprised 100 μg antibody by intravenous injection starting at about 5-7 days after tumor inoculation. The antibody treatment was repeated every 3 days and the mice were sacrificed at about 14-21 days.

The test system of experiment [4] is glioma GL261 tumors. The experiment in a line: Mouse glioma GL261 tumor model, alone or with temozolomide. It is filed as in vivo. The settings on record: 20 mg/kg TMZ + 200 μg antibody. As to the method: FIGS. 3A-3C: (FIG. 3A) Percent survival of glioma GL261 tumors treated with temozolomide (TMZ) in combination with IgG, F59, anti-PDL1, or F48. […] Western blot analysis of FLG2 expression with various antibodies. FGLS expression is reduced in tumors treated with anti-FGL2 antibodies. (FIG. 3C) Percent survival of mice inoculated with GL261 and treated with IgG control or F59.
Next, the effect of the combination of temozolomide (TMZ) and anti-PDL1+anti-FGL2 antibody was determined on the mouse glioma GL261 tumor model progression in vivo.
Percent survival of glioma GL261 tumors treated with temozolomide (TMZ) in combination with IgG, F59, anti-PDL1, or F48 (FIG. 3).

Experiment [5] relates to FGL2. The experiment is described as follows: Cross-species binding of anti-FGL2 antibodies. The text has this:
In particular embodiments, the anti-FGL2 monoclonal antibodies provided herein are the F48 and F59 antibodies. […] Given that the combination of CD39 and CD73 degrade ATP, ADP, and AMP to adenosine, they can be viewed as “immunological switches” that shift ATP-driven pro-inflammatory immune cell activity toward an anti-inflammatory state mediated by adenosine. CD39 and CD73 both play a role in regulating the function of several immune cell types, including lymphocytes, neutrophils, monocytes/macrophages, dendritic cells, and endothelial cells (Antonioli et al., 2013).

B1: F48: anti-FGL2 monoclonal antibody of hybridoma clone F48; heavy chain SEQ ID NO:2, light chain SEQ ID NO:4 (antibody, V domains shown)
VH: MGWSCIILFLVATATGVHSQVQLQQPGAELVKPGASVKLSCKASGYTFASYWMQWVKQRPGQGLEWIGEIDPSDSYTNYNQKFKGKATLTVDTSSNTAYMQLSSLTSEDSAVYYCARNGNYYGSTYDYWGQGTTLTVSS
VL: MMSSAQFLGLLLLCFQGTRCDIQMTQTTSSLSASLGDRVTISCRASQDVSNYLNWYQQKPDGSVKLLIYYTSRLHSGVPSRFSGSGSGAHYSLTISNLEQEDIATYFCQQGNTLPPWTFGGGTKLEIK
Take B1: the “activation-induced T cell growth (cell numbers)” value in experiment [1] is given as “promote activation-induced T cell growth”. Further, the “block CD39 and CD73 regulatory T cell expression” value in experiment [2] was “able to block CD39 and CD73 regulatory T cell expression”. The “percentage of M2 cell population in the tumors” value in experiment [3] was “suppression of the percentage of M2 cell population in the tumors”. Moreover, in experiment [4], the percent survival result is “significantly improve glioma survival”. Also, in experiment [5], the cross-species binding entry is on record as “share the property of cross-species binding”.
